Here are results for 1 substance from article PMC5585231.

In this assay the target is CD3 ζ SNID2 peptide (22-mer). The assay can be described thus: ITC; MicroCal iTC200; 20 mM HEPES (pH 8.0), 100 mM NaCl, 25 °C; typically Nef at 200 μM injected from the syringe to 20 μM CD3 ζ in the cell.
CD3 ζ SNID2 peptide (22-mer), sequence (P20963 other isoform, or with tags, fused parts or gaps): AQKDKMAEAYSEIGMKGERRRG

The substance “SIV_(mac239) Nef 66–235 (SIV Nef-B) (from UniProt Q5QGG3 66-235) (domain or fragment)” registered a Kd of 2.6 µM.
